By IC50 is commonly meant the concentration that inhibits the measured activity by half. One may read the Kd as the concentration at which binding is half-saturated.

The results in this text go back to patent publication US20200283528A1 (NUMAB THERAPEUTICS, published 2020).

The target of experiment [1] is T1, human PDL1 (recombinant, soluble) (human, UniProt Q9NZQ7 19-238).
T1 construct: also called hPDL1; hPD-L1
The experiment can be described thus: PDL1/B7-1 competition ELISA; B7-1 coated, biotinylated PDL1 40 ng/ml. Here is the method:
(§1) ELISA microplates coated overnight at 4° C. with 4 μg/ml human B7-1 were washed three times with 450 μl wash buffer per well. Plates were blocked for 1 hour at room temperature by adding 300 μl of PBS with 1% BSA and 0.2% tween (dilution buffer) to each well. […] The mixtures were pre-incubated for 1 hour at room temperature under gentle agitation on a rotating mixer (21 rpm) and added to the microplates after 3 wash cycles with 450 μl wash buffer per well. Plates were incubated for 1.5 hours at room temperature under gentle agitation, then 10 ng/ml streptavidin-polyHRP40 was added to each microplate well after three washes with 450 μl of wash buffer per well. After 1 h incubation at RT, plates were washed three times with 450 μl wash buffer and TMB substrate solution was added. The enzymatic reaction was stopped after 6 minutes by addition of 1 M HCl and absorbance was measured at 450 nm using 690 nm as a reference wavelength. For calculation of IC₅₀ values, a four-parameter logistic (4PL) curve fit was performed in Graph Pad Prism using reference subtracted values.
Background: ELISA stands for enzyme-linked immunosorbent assay.

Experiment [2] deals with T1, human PDL1 (recombinant, soluble). The experiment can be described thus: PDL1/PD-1 competition ELISA; PD-1 coated, biotinylated PDL1 1 ng/ml. Here is the method: as §1, with “PD-1” for “B7-1”
In experiment [3] the target is T2, human PDL1 expressed on cells (human, UniProt Q9NZQ7 19-290). The experiment can be described thus: cell-based or functional assay.
In experiment [4] the target is T2, human PDL1 expressed on cells. The experiment can be described thus: cell-based or functional assay. The source holds these as a separate data set.
In experiment [5] the target is T3, Fc tagged human PDL1 (human, UniProt Q9NZQ7 19-238).
T3 construct: also called PDL1-Fc chimeric protein (human); not shown: Fc tag
The experiment can be described thus: SPR Biacore T200; PDL1-Fc captured. On the procedure:
(§2) An antibody specific for the Fc region of human IgGs was immobilized on a sensor chip (CM5 sensor chip, GE Healthcare) by amine-coupling. […] After each injection cycle, surfaces were regenerated with one injection of a 3 M MgCl₂ solution. The apparent dissociation (kd) and association (kₐ) rate constants and the apparent dissociation equilibrium constant (KD) were calculated using one-to-one Langmuir binding model.
(In general: Surface plasmon resonance follows binding to a sensor surface in real time, without labels.)

For experiment [6], the target named is T2, human PDL1 expressed on cells. The experiment can be described thus: cell-based or functional assay. This is another data set of the same source.
Experiment [7] concerns the target T3, Fc tagged human PDL1. The experiment can be described thus: SPR Biacore T200; PDL1-Fc captured; molecule 0.12-90 nM. Here is the method:
as §2

B1: PRO1013 (37-20-B03-sc02 scFv) (scFv)
scFv: DIQMTQSPSSLSASVGDRVTITCQASQSIGTYLAWYQQKPGKAPKLLIYRAFILASGVPSRFSGSGSGTDFTLTISSLQPEDFATYYCQSNFYSDSTTIGPNAFGTGTKVTVLGGGGGSGGGGSGGGGSGGGGSQVQLVQSGAEVKKPGASVKVSCKASGFSFNSDYWIYWVRQAPGQGLEWMGSIYGGSSGNTQYASWAQGRVTMTRDTSISTAYMELSSLRSEDTAVYYCARGYVDYGGATDLWGQGTLVTVSS
notes: also called 37-20-B03 CDR, VH1
Regarding B1, the IC50 in experiment [1] came out at 0.00405 µg/mL; in experiment [2], 0.00057 µg/mL. Further, the “NF-AT potency assay IC50” value in experiment [3] turned out to be 0.0213 µg/mL.

B2: PRO1060 (33-03-G02 IgG1 HC with 38_02_A04 sc01 scFv, PDL1/CD137 (scFv) silent Morrison) (bispecific antibody)
light: DIQMTQSPSSLSASVGDRVTITCQASQSINDYLAWYQQKPGKAPKLLIYKASTLASGVPSRFSGSGSGTDFTLTISSLQPEDFATYYCQQGYIITDIDNVFGTGTKVTVLGTVAAPSVFIFPPSDEQLKSGTASVVCLLNNFYPREAKVQWKVDNALQSGNSQESVTEQDSKDSTYSLSSTLTLSKADYEKHKVYACEVTHQGLSSPVTKSFNRGEC
heavy: QVQLQESGPGLVKPSETLSLTCKVSGFSFSSGYDMCWIRQPPGKGLEWIGCVVAGSVDITYYASWAKGRVTISVDSSKNQFSLKLSSVTAADTAVYYCARKDAYSDAFNLWGQGTLVTVSSASTKGPSVFPLAPSSKSTSGGTAALGCLVKDYFPEPVTVSWNSGALTSGVHTFPAVLQSSGLYSLSSVVTVPSSSLGTQTYICNVNHKPSNTKVDKRVEPKSCDKTHTCPPCPAPEAAGGPSVFLFPPKPKDTLMISRTPEVTCVVVDVSHEDPEVKFNWYVDGVEVHNAKTKPREEQYNSTYRVVSVLTVLHQDWLNGKEYKCKVSNKALGAPIEKTISKAKGQPREPQVYTLPPSREEMTKNQVSLTCLVKGFYPSDIAVEWESNGQPENNYKTTPPVLDSDGSFFLYSKLTVDKSRWQQGNVFSCSVMHEALHNHYTQKSLSLSPGKGGGGSGGGGSIQMTQSPSSLSASVGDRVTITCQASQSINNVLAWYQQKPGKAPKLLIYRASTLASGVPSRFSGSGSGTDFTLTISSLQPEDFATYYCQSSYGNYGDFGTGTKVTVLGGGGGSGGGGSGGGGSGGGGSQVQLQESGPGLVKPSETLSLTCKVSGFSFSNSYWICWIRQPPGKGLEWIGCTFVGSSDSTYYANWAKGRVTISVDSSKNQFSLKLSSVTAADTAVYYCARHPSDAVYGYANNLWGQGTLVTVSS
notes: also called Morrison-H
For the molecule B2, the IC50 in experiment [1] was 0.0174 µg/mL; in experiment [2] it was 0.00567 µg/mL. For the same molecule, the “NF-AT potency assay IC50” value in experiment [3] was determined as 0.133 µg/mL.

B3: PRO885 (38-02-A04 sc01 scDb-i/33-03-G02 sc01 scDb-o) (bispecific antibody)
chain: DIQMTQSPSSLSASVGDRVTITCQASQSINDYLAWYQQKPGKAPKLLIYKASTLASGVPSRFSGSGSGTDFTLTISSLQPEDFATYYCQQGYIITDIDNVFGTGTKVTVLGGGGGSQVQLQESGPGLVKPSETLSLTCKVSGFSFSNSYWICWIRQPPGKGLEWIGCTFVGSSDSTYYANWAKGRVTISVDSSKNQFSLKLSSVTAADTAVYYCARHPSDAVYGYANNLWGQGTLVTVSSGGGGSGGGGSGGGGSGGGGSIQMTQSPSSLSASVGDRVTITCQASQSINNVLAWYQQKPGKAPKLLIYRASTLASGVPSRFSGSGSGTDFTLTISSLQPEDFATYYCQSSYGNYGDFGTGTKVTVLGGGGGSQVQLQESGPGLVKPSETLSLTCKVSGFSFSSGYDMCWIRQPPGKGLEWIGCVVAGSVDITYYASWAKGRVTISVDSSKNQFSLKLSSVTAADTAVYYCARKDAYSDAFNLWGQGTLVTVSS
As to B3, the IC50 turned out to be 0.0122 µg/mL in experiment [1] and 0.00835 µg/mL in experiment [2]. Besides, the “NF-AT potency assay IC50” value in experiment [3] was 0.137 µg/mL. The “IL-2 secretion of SEA stimulated PBMC, EC50 in ng/ml” value in experiment [4] came to 39.9 ng/mL.

B4: PRO1126 (38-02-A04 sc01 scDb-i/33_03_G02 sc03 Full scDb-o) (bispecific antibody)
chain: DFQLTQSPSSLSASVGDRVTITCQASQSINDYLAWYQQKPGKSPKLLIYKASTLASGVPSRFSGSGSGTDFTLTISSLQPEDFATYYCQQGYIITDIDNVFGTGTKVTVLGGGGGSQVQLQESGPGLVKPSETLSLTCKVSGFSFSNSYWICWIRQPPGKGLEWIGCTFVGSSDSTYYANWAKGRVTISVDSSKNQFSLKLSSVTAADTAVYYCARHPSDAVYGYANNLWGQGTLVTVSSGGGGSGGGGSGGGGSGGGGSIQMTQSPSSLSASVGDRVTITCQASQSINNVLAWYQQKPGKAPKLLIYRASTLASGVPSRFSGSGSGTDFTLTISSLQPEDFATYYCQSSYGNYGDFGTGTKVTVLGGGGGSQSQLQESGPGLVKPSETLSLTCKASGFSFSSGYDMCWVRQPPGKGLEWIACVVAGSVDITYYASWAKGRVTISKDSSKNQVSLKLSSVTAADTAVYFCARKDAYSDAFNLWGQGTLVTVSS
Take B4: the “fold improvement in affinity against the CDR graft (PRO885)” value with Fc tagged human PDL1 [5] stood at 20 fold. In addition, in experiment [6], the “NFAT reporter gene assay IC50” value was determined as 0.0481 µg/mL and the “NFAT reporter gene assay, improvement of neutralization potency against PRO885” value worked out at 3 fold. Further, the IC50 in experiment [2] worked out at 0.00128 µg/mL. In the experiment with Fc tagged human PDL1 [7], this molecule had a Kd of 3.5 pM.
